Reference: US20140147456A1 (AFFIRIS, published 2014)

B1: monoclonal antibody 12/B3-5-B11 (antibody, V domains shown)
VH: DVQLQESGPGLVKPSQSLSLTCTVTGYSITSDYAWNWIRQFPGNKLEWMGYISYSGTTTYNPSLKSRISITRHTSKNQFFLQLNSVTTEDSATYYCTRLGYYFDYWGQGTTLTVSS
VL: DIVMTQSPASLAMSVGQKVTMNCKSSQSLLSSKNQKNFLAWYQQKPGQSPKVLVYFASTRASGVPDRFIGSGSGTDFTLTISSVQAEDLADYFCQQQYNTPLTFGAGTKLELK
B2: monoclonal antibody BTS4-1 (antibody, V domains shown)
VH: QIQLVQSGPELKKPGETVKISCKASGYTFTDCSMHWVKQAPGQGLKWMGWINTKTGEPTYADDFKGRFAFSLETSASTAYLQINILKNEDSATYFCAAHSGKDYAIDYWGQGTSVTVSS
VL: DVLMTQTPLSLPVSLGDQASISCRSSQSIVHRNGNTYLEWYLQKPGQSPKLLIYKVSNRFSGVPDRFSGSGSGTDFTLRISRVEAQDLGVYFCFQGSRVPPTFGGGTKLEIK
B3: monoclonal antibody CJ7-6-B7 (antibody, V domains shown)
VH: NVQLQESGPGLVKPSQSLSLTCTVTGHSITSDYAWNWIRQFPGNKLEWMGYITNSGSTTYNPSLKSRISITRDTSKNQFFLQLNSVTTEDTATYYCTRGGPYWGQGTLVTVSA
VL: DIVMTQSQKFMSTSVGDRVSITCKASQNVGTAVVWYQQKPGQSPKLLIYSASNRYTGVPDRFTGSGSGTDFTLTITNMQSEDLADYFCQQYSSYPLTFGAGTKLELK
B4: monoclonal antibody 5/C7-6-C8 (antibody, V domains shown)
VH: EVQLVESGGGLVEPGGSLKLSCVASGFTFSTYAMSWFRLTPERRLEWVAAISNGGSQNSYPDSVKGRFTVSRDNAKNTLYLQMSSLRSEDTAMYYCSRNGNYFDYWGQGTTLTVSS
VL: QIVLTQSPAIMSASPGEKVTMTCSASSSISYMHWYQQKPGTSPKRWIFDTSKLASGVPARFSGSGSGTSYSLTISSMEAEDAATYYCHQRSSYPTFGSGTKLEIK

Target: T1, recombinantly expressed human CETP N-terminally fused to GST (human, UniProt P11597 18-493, limits assumed)
T1 construct: coated antigen of the protein ELISA; also called GST-CETP; CETP protein; not shown: GST (Glutathione-S-transferase) tag at the N-terminus
T1 sequence (looked up): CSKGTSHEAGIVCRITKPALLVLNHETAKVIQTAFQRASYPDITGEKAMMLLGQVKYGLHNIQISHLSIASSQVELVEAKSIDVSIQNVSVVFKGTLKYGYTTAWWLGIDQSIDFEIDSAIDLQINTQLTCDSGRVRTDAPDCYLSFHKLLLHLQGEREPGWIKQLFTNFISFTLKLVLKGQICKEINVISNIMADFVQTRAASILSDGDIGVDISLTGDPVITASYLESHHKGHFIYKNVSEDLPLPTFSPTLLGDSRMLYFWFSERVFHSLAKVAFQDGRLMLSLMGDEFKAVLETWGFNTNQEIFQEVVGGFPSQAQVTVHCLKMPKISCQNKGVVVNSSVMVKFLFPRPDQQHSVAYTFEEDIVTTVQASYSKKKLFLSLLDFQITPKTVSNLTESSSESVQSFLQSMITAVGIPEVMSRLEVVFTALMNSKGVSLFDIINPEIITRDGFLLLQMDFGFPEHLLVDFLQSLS
Assay: human CETP protein ELISA, coated protein, antibody titrated

Binder	binding result
B1	binds
B2	binds
B3	binds
B4	binds
